According to patent publication US20240218048:

How the values were obtained:
[1] = tested on: factor VIII expressed by F8-BDD (normal unmodified B-domain-deleted F8)
[2] = tested on: factor VIII expressed by F8-BDD-299
[3] = tested on: factor VIII expressed by F8-BDD-N8

Thrombin (FIIa)
activity of factor VIII after thrombin was added (substrate luminescence assay, every two minutes) [1]: the activity of factor VIII expressed by F8-BDD and F8-BDD-N8 is slightly increased
activity of factor VIII after thrombin was added (substrate luminescence assay, every two minutes) [2]: From the second minute, the activity of factor VIII expressed by F8-BDD-299 is significantly increased
activity of factor VIII after thrombin was added (substrate luminescence assay, every two minutes) [3]: the activity of factor VIII expressed by F8-BDD and F8-BDD-N8 is slightly increased
